According to PMC5444859:

Legend:
[1] = molecular target: CASV L-Cterm (C-terminal 326 amino acids of the California Academy of Sciences virus L protein, residues 1721-2046) (California Academy of Sciences virus (CASV)) (UniProt J7HBG8); assay: SEC
[2] = molecular target: CASV L-Cterm (C-terminal 326 amino acids of the California Academy of Sciences virus L protein, residues 1721-2046) (California Academy of Sciences virus (CASV)) (UniProt J7HBG8); assay: SAXS
[3] = molecular target: isolated CASV L-Cterm domain 2 (California Academy of Sciences virus (CASV)); assay: SAXS

## CASV L-Cterm (C-terminal 326 amino acids of the California Academy of Sciences virus L protein, residues 1721-2046) (from UniProt J7HBG8 1721-2046) (domain or fragment)
[1]
  stoichiometry N: 2
[2]
  stoichiometry N: 2

## isolated CASV L-Cterm domain 2 (domain or fragment)
[3]
  stoichiometry N: 2
